Results: the supplement of paper PMC6757056
± gives the standard deviation of the averaged measurements.

B1: library; a variant is named by its letters at N, in order (parent)
chain: GCUGUCACCGGAAUACCAGCAUCGUCUUGAUGCCCUUGGAAGUCCGGUCUGAUGAGUCCNNNNNGGACGAAACAGC

Tests used:
[1] = variants of: B1; assay: FACS-Seq fitted mean relative fluorescence mCherry/BFP without ligand (log10 relative fluorescence); higher = higher reporter protein expression; conditions: HEK293T, ligand present: no
Experimental: (§1)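 Hammerhead (sTRSV) ribozyme switch libraries with a ligand aptamer grafted on stem I and a randomized N4-6 loop II, cloned into the 3' UTR of mCherry and transiently transfected into HEK293T cells; RNA-Seq 72 h post transfection with ligand added 1 h before transfection; RNA read count / plasmid DNA read count normalized to the non-cleaving sTRSVctl (x100), log10; sequences with >100 DNA reads. FACS-Seq: lentiviral library sorted into 6 bins after 48 h ligand, log-normal fit mean of mCherry/BFP scaled to controls. Printed sequences are partial switch sequences.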

[2] = variants of: B1; assay: normalized RNA/DNA level with ligand (relative to sTRSVctl = 100) (log10 (% of sTRSVctl)); higher = less ribozyme self-cleavage, higher mRNA level; conditions: ligand concentration (+) RNA-Seq: 5 mM, HEK293T, reporter: mCherry (pCS4076), ligand present: yes
Experimental: as §1

[3] = variants of: B1; assay: normalized RNA/DNA level without ligand (relative to sTRSVctl = 100) (log10 (% of sTRSVctl)); higher = less ribozyme self-cleavage, higher mRNA level; conditions: HEK293T, reporter: mCherry (pCS4076), ligand present: no
Experimental: as §1

[4] = variants of: B1; assay: FACS-Seq fitted mean relative fluorescence mCherry/BFP with ligand (log10 relative fluorescence); ligand concentration (+) FACS-Seq: 1 mM; higher = higher reporter protein expression; conditions: HEK293T, ligand present: yes
Experimental: as §1

Row | Variant | FACS-Seq fitted mean (log10) [1] | normalized RNA/DNA level with ligand (log10) [2] | normalized RNA/DNA level without ligand (log10) [3] | FACS-Seq fitted mean (log10) [4]
1 | GACGU | 0.7517 ± 0.0053 | 1.93 ± 0.027 | 1.64 ± 0.15 | 1.03 ± 0.022
2 | GACGG | 0.642 ± 0.057 | 1.93 ± 0.045 | 1.71 ± 0.11 | 0.887 ± 0.096
3 | AAACG | 0.558 ± 0.061 | 2 ± 0.03 | 1.84 ± 0.12 | 0.652 ± 0.062
4 | AAACU | 0.552 ± 0.079 | 1.97 ± 0.093 | 1.79 ± 0.033 | 0.604 ± 0.0015
5 | AAACC | 0.153 ± 0.14 | 1.96 ± 0.097 | 1.91 ± 0.14 | 0.18 ± 0.0037
6 | AAACA | -0.0142 ± 0.16 | 1.9113 ± 0.00046 | 1.72 ± 0.14 | 0.172 ± 0.072
7 | UACCG | 1.2 ± 0.1 | 2.01 ± 0.067 | 2 ± 0.032 | 1.09 ± 0.086
8 | UACCU | -0.0361 ± 0.0029 | 1.988 ± 0.00013 | 1.99 ± 0.099 | 0.0166 ± 0.074
9 | UACCA | 0.405 ± 0.01 | 1.9 ± 0.086 | 1.82 ± 0.098 | 0.436 ± 0.11
10 | UACCC | 0.622 ± 0.13 | 2.02 ± 0.026 | 2.04 ± 0.048 | 0.599 ± 0.045
11 | UAGGA | 0.042 ± 0.047 | 1.958 ± 0.0077 | 1.55 ± 0.063 | 0.302 ± 0.044
12 | UACAU | 0.684 ± 0.015 | 2.03 ± 0.17 | 1.91 ± 0.14 | 0.722 ± 0.0088
13 | UACAC | 0.83 ± 0.034 | 1.98 ± 0.02 | 1.99 ± 0.025 | 0.695 ± 0.097
14 | UACAA | 0.427 ± 0.022 | 1.972 ± 0.012 | 1.6 ± 0.032 | 0.553 ± 0.018
15 | UACAG | 1.02 ± 0.041 | 1.96 ± 0.051 | 1.908 ± 0.018 | 0.918 ± 0.052
16 | CACGA | 0.805 ± 0.037 | 1.998 ± 0.0074 | 1.76 ± 0.036 | 0.917 ± 0.012
17 | CACGC | 0.917 ± 0.026 | 2.04 ± 0.065 | 1.996 ± 0.013 | 1.04 ± 0.043
18 | AAAUA | 0.6481 ± 0.0057 | 1.99 ± 0.038 | 1.62 ± 0.16 | 0.806 ± 0.062
19 | AAAUU | 0.984 ± 0.045 | 2.02 ± 0.1 | 1.82 ± 0.082 | 1.05 ± 0.06
20 | AAAUG | 0.571 ± 0.038 | 2.03 ± 0.022 | 1.75 ± 0.054 | 0.607 ± 0.029
21 | AAAUC | 0.4981 ± 0.0025 | 1.89 ± 0.034 | 1.9 ± 0.099 | 0.511 ± 0.021
22 | GAAAG | 1.046 ± 0.0068 | 1.96 ± 0.022 | 1.66 ± 0.044 | 1.08 ± 0.14
23 | GAAAA | 0.381 ± 0.0065 | 1.96 ± 0.033 | 1.3 ± 0.14 | 0.809 ± 0.014
24 | GAAAC | 0.594 ± 0.018 | 1.97 ± 0.025 | 1.77 ± 0.072 | 0.621 ± 0.075

Row | Variant | FACS-Seq fitted mean (log10) [1] | normalized RNA/DNA level with ligand (log10) [2] | normalized RNA/DNA level without ligand (log10) [3] | FACS-Seq fitted mean (log10) [4]
25 | GAAAU | 0.796 ± 0.0017 | 2.01 ± 0.038 | 1.71 ± 0.059 | 1.04 ± 0.097
26 | AACAU | 0.214 ± 0.0061 | 1.93 ± 0.1 | 1.75 ± 0.067 | 0.439 ± 0.045
27 | AACAA | 0.377 ± 0.039 | 1.99 ± 0.086 | 1.45 ± 0.25 | 0.704 ± 0.013
28 | AACAC | 0.834 ± 0.025 | 1.94 ± 0.048 | 1.91 ± 0.075 | 0.925 ± 0.089
29 | AACAG | 0.587 ± 0.0063 | 1.855 ± 0.014 | 1.78 ± 0.055 | 0.677 ± 0.035
30 | UACGC | 0.81 ± 0.14 | 2.01 ± 0.038 | 1.98 ± 0.17 | 0.916 ± 0.039
31 | UACGU | 0.851 ± 0.024 | 2.022 ± 0.012 | 1.92 ± 0.014 | 0.816 ± 0.023
32 | UACGA | 0.287 ± 0.021 | 2.07 ± 0.025 | 1.72 ± 0.097 | 0.324 ± 0.024
33 | UAGAA | -0.0982 ± 0.13 | 1.91 ± 0.11 | 1.43 ± 0.016 | 0.448 ± 0.028
34 | UAGAU | 0.687 ± 0.045 | 2.02 ± 0.036 | 1.8244 ± 0.0014 | 0.828 ± 0.09
35 | UAGAG | 0.823 ± 0.13 | 1.94 ± 0.063 | 1.73 ± 0.093 | 0.842 ± 0.013
36 | UAGAC | 0.814 ± 0.036 | 1.91 ± 0.03 | 1.91 ± 0.09 | 0.723 ± 0.008
37 | GAGCG | 0.793 ± 0.054 | 1.94 ± 0.066 | 1.79 ± 0.033 | 0.81 ± 0.05
38 | GAGCU | 0.479 ± 0.21 | 1.96 ± 0.14 | 1.8 ± 0.11 | 0.5269 ± 0.0042
39 | GAGCC | 0.935 ± 0.11 | 1.953 ± 0.015 | 1.849 ± 0.013 | 0.918 ± 0.019
40 | CACCA | 0.7294 ± 0.00094 | 1.97 ± 0.083 | 1.8 ± 0.071 | 0.792 ± 0.053
41 | CACCU | 0.774 ± 0.091 | 2.06 ± 0.075 | 1.78 ± 0.097 | 0.9241 ± 4.2e-05
42 | CACCC | 0.8 ± 0.07 | 1.92 ± 0.06 | 1.93 ± 0.024 | 0.762 ± 0.018
43 | GACAG | 0.769 ± 0.29 | 1.952 ± 0.0094 | 1.77 ± 0.055 | 0.612 ± 0.13
44 | GACAA | 0.619 ± 0.048 | 1.938 ± 0.019 | 1.56 ± 0.022 | 0.731 ± 0.017
45 | GACAU | 0.478 ± 0.063 | 2.04 ± 0.032 | 1.859 ± 0.0069 | 0.576 ± 0.07
46 | CAGCA | 0.319 ± 0.011 | 1.88 ± 0.099 | 1.52 ± 0.1 | 0.461 ± 0.062
47 | CAGCC | 0.864 ± 0.054 | 2 ± 0.035 | 1.97 ± 0.025 | 0.846 ± 0.13
48 | CAGCU | 0.425 ± 0.0073 | 2.017 ± 0.019 | 1.75 ± 0.059 | 0.527 ± 0.0083

Row | Variant | FACS-Seq fitted mean (log10) [1] | normalized RNA/DNA level with ligand (log10) [2] | normalized RNA/DNA level without ligand (log10) [3] | FACS-Seq fitted mean (log10) [4]
49 | AACUA | 0.84 ± 0.078 | 2.01 ± 0.045 | 1.77 ± 0.053 | 1 ± 0.015
50 | AACUC | 0.94 ± 0.044 | 2.01 ± 0.11 | 1.916 ± 0.016 | 0.924 ± 0.031
51 | AACUG | 0.814 ± 0.11 | 2 ± 0.12 | 1.8 ± 0.18 | 0.939 ± 0.032
52 | AACUU | 1.01 ± 0.076 | 1.9847 ± 0.0011 | 1.89 ± 0.059 | 0.981 ± 0.015
53 | AAGAG | 0.563 ± 0.11 | 1.97 ± 0.099 | 1.67 ± 0.089 | 0.728 ± 0.02
54 | AAGAU | 0.919 ± 0.085 | 1.97 ± 0.06 | 1.69 ± 0.052 | 1.06 ± 0.11
55 | AAGAC | 0.968 ± 0.16 | 1.91 ± 0.06 | 1.86 ± 0.14 | 0.922 ± 0.12
56 | AAGAA | 0.0676 ± 0.046 | 1.94 ± 0.04 | 1.36 ± 0.025 | 0.545 ± 0.015
57 | CAGAU | 0.809 ± 0.1 | 2 ± 0.035 | 1.6 ± 0.25 | 1.05 ± 0.037
58 | CAGAC | 0.2 ± 0.032 | 2.04 ± 0.028 | 1.9 ± 0.086 | 0.0728 ± 0.14
59 | CAGAA | 0.0186 ± 0.078 | 1.95 ± 0.054 | 1.2 ± 0.22 | 0.681 ± 0.037
60 | GAGAA | 0.48 ± 0.017 | 1.91 ± 0.15 | 1.41 ± 0.11 | 0.7667 ± 0.00081
61 | GAGAU | 0.787 ± 0.038 | 1.97 ± 0.038 | 1.73 ± 0.074 | 0.958 ± 0.062
62 | AACCG | 0.924 ± 0.031 | 2 ± 0.031 | 1.89 ± 0.071 | 1.13 ± 0.098
63 | AACCC | 0.867 ± 0.012 | 2.042 ± 0.014 | 1.97 ± 0.031 | 0.862 ± 0.045
64 | AACCA | 0.923 ± 0.12 | 2.001 ± 0.0053 | 1.82 ± 0.047 | 0.908 ± 0.065
65 | AACCU | 0.83 ± 0.037 | 2.06 ± 0.1 | 1.949 ± 0.017 | 0.698 ± 0.016
66 | GACUG | 0.5397 ± 0.0016 | 1.98 ± 0.076 | 1.804 ± 0.0069 | 0.61 ± 0.081
67 | GACUU | 0.702 ± 0.12 | 2.1 ± 0.051 | 1.79 ± 0.038 | 0.696 ± 0.051
68 | UAGCA | 0.6175 ± 0.0054 | 1.95 ± 0.052 | 1.55 ± 0.091 | 0.757 ± 0.046
69 | UAGCG | 1.09 ± 0.18 | 1.94 ± 0.066 | 1.9 ± 0.019 | 1.08 ± 0.016
70 | UAGCU | 1.23 ± 0.19 | 2.01 ± 0.048 | 1.93 ± 0.068 | 1.14 ± 0.05
71 | UAAUC | 0.913 ± 0.018 | 1.9 ± 0.047 | 1.94 ± 0.098 | 0.9083 ± 0.0059
